System: C81 cells
Test: C81 xenografts in female athymic nude mice
Assay type: in vivo
Experimental: FIG. 8A-C. Manipulation of EBP1 expression affects growth of prostate cancer cells in vivo. A. Ectopic expression of EBP1 reduces the growth of androgen independent cells in athymic female mice C81 vector or EBP1 transfected cells were injected subcutaneously into female athymic mice. Tumor development with time is shown (n=10 animals, 20 sites per group). B. Tumor volumes and growth rate. Tumor volumes were calculated as described in “Materials and Methods”. Each point represents the mean±SE (10 mice per group injected at 20 sites). C. Elimination of EBP1 expression enhances growth of androgen dependent LNCaP cells in vivo. A16 lentivirus control or C13 EBP1 shRNA transduced LNCaP cells were injected subcutaneously into female athymic mice. Tumor volumes were calculated as described in “Materials and Methods”. Each point represents the mean±SE (10 mice per group injected at 20 sites). * indicates p 0.04.
Western Blot Analysis. Western blot analysis was performed as previously described (19). The Ebp1 antibody was from Upstate (Lake Placid, N.Y.), the polyclonal antibody to actin from Sigma, the AKT and phospho AKT antibodies from Cell Signaling (Beverly, Mass.) and the AGR2 antibody was previously described (20) Cell Growth Assays Cell growth measurement in complete media was performed as described using a hemocytometer (21). For soft agar growth assays, increasing concentrations of cells (as indicated) were plated in 35 mm Petri dishes in 0.3% agar in complete media and colonies were counted after 10 days of incubation (21). For studies assessing the effect of DHT, HRG or chemotherapeutic agents on cell growth, cells (5×10^3) were plated in 96 well plates in complete media. After a 24-hour attachment period, the medium was replaced with steroid free medium [phenol red free RPMI 1640 and 5% charcoal stripped fetal bovine serum (Sigma)]. After 48 hours of steroid depletion, cells were refed with fresh steroid reduced medium with or without the indicated concentrations of DHT, bicalutamide (Casodex) (10 μM), HRG or the chemotherapeutic drugs at the concentrations indicated. Relative cell growth was determined using a Promega Proliferation Reagent (Promega, Madison Wis.) as per manufacturer's instructions with absorbance being read at […] using a Dynex plate reader. Luciferase Reporter Assays Cells (5×10^4) were plated in 12 well plates in complete media. When cells reached 50-60% confluence, they were transfected using the FuGENE®-6 Reagent (Roche, Indianapolis, Ind.) according to the manufacturer's instructions. Cells were transfected with 0.5 μg of an MMTV-luciferase reporter plasmid and 5 ng of a TK Renilla plasmid (Promega, Madison, Wis.) as an internal control. Complete medium was replaced 24 h after transfection with phenol red free RPMI 1640 with CSS with or without R1881 (10^−8M). Luciferase activity was determined using the Promega Dual luciferase assay kit as described by the manufacturer. In Vivo Studies in Athymic Mice Female nude athymic NCr-nu/nu mice, 4-6 weeks of age, were purchased from the National Cancer Institute (Frederick, Md.). Animals were housed in a pathogen free environment under controlled conditions of light and humidity and received food and water ad libitum. […] Tumors were measured with calipers. Tumor volumes were calculated by the formula width^2×length/2 […]. Mean tumor volume±S.D. were calculated and plotted against time. […] Statistical Analysis Results of growth assays were analyzed using a two-sided Students t-test. […]

B1: EBP1: ErbB3 binding protein (SEQ ID NO: 2), AR corepressor, here ectopically expressed in cancer cells by stable transfection of an expression plasmid (protein, listed as Homo sapiens)
chain: MSGEDEQQEQTIAEDLVVTKYKMGGDIANRVLRSLVEASSSGVSVLSLCEKGDAMIMEETGKIFKKEKEMKKGIAFPTSISVNNCVCHFSPLKSDQDYILKEGDLVKIDLGVHVDGFIANVAHTFVVDVAQGTQVTGRKADVIKAAHLCAEAALRLVKPGNQNTQVTEAWNKVAHSFNCTPIEGMLSHQLKQHVIDGEKTIIQNPTDQQKKDHEKAEFEVHEVYAVDVLVSSGEGKAKDAGQRTTIYKRDPSKQYGLKMKTSRAFFSEVERRFDAMPFTLRAFEDEKKARMGVVECAKHELLQPFNVLYEKEGEFVAQFKFTVLLMPNGPMRITSGPFEPDLYKSEMEVQDAELKALLQSSASRKTQKKKKKKASKTAENATSGETLEENEAGD
modifications: FLAG tag
B1 was tested, and the “sites that developed tumors at the end of both studies” value (C81 EBP1 transfectants (vector 25/26), p=0.00001) was 10/26, the “inoculation sites with tumors on Day 28 post transplantation” value (C81 EBP1 transfectants (vector controls 24/26)) was 1/26 and the “day on which the first tumor was observed” value (C81 EBP1 transfectants s.c. in female nude mice (vector day 8)) was 20 days. The “average tumor volume at the end of the first study” value (C81 EBP1 transfectants, 6 sites per group, Mean+S.E. (vector 998±206), p=0.01) was 104±70 mm^3 and the “average tumor volume, second experiment” value (C81 EBP1 transfectants, 20 sites per group (vector 561±47), p=0.0001, in mm³ (unit assumed)) was 206±54.
